Among the data in article PMC3531806 are half-life (t1/2) of the dissociation of trimers to monomers and stoichiometry N values, retold here.

For this assay, the target named is T1, H1N1 WSN NP protein (nucleoprotein of influenza A/WSN/1933), wild type (influenza A virus A/WSN/1933 (H1N1)), P15682.
T1 chain: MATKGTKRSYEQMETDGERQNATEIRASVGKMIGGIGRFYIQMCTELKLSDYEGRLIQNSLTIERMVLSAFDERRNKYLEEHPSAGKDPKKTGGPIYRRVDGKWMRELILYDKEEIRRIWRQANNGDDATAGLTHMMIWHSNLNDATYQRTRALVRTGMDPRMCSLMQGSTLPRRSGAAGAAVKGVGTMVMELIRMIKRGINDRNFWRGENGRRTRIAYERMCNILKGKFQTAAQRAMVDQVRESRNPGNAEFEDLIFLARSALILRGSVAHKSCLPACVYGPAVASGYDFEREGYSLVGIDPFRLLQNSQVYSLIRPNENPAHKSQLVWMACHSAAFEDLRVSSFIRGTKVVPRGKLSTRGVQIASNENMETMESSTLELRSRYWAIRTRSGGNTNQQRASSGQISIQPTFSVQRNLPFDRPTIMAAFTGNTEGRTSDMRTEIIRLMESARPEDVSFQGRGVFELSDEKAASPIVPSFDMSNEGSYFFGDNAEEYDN
Nature of the assay: SEC. Conditions: remark: other sources report otherwise.

B1: H1N1 WSN NP protein (nucleoprotein of influenza A/WSN/1933), wild type, P15682 1-498 (natural protein)
chain: T1 chain
Molecule B1 returned a half-life (t1/2) of the dissociation of trimers to monomers of 10 h and a stoichiometry N of 3.
